T1: EsCas13d, nuclease-dead (Eubacterium siraeum, UniProt B0MS50, R295A;H300A;R849A;H854A)
T1 sequence: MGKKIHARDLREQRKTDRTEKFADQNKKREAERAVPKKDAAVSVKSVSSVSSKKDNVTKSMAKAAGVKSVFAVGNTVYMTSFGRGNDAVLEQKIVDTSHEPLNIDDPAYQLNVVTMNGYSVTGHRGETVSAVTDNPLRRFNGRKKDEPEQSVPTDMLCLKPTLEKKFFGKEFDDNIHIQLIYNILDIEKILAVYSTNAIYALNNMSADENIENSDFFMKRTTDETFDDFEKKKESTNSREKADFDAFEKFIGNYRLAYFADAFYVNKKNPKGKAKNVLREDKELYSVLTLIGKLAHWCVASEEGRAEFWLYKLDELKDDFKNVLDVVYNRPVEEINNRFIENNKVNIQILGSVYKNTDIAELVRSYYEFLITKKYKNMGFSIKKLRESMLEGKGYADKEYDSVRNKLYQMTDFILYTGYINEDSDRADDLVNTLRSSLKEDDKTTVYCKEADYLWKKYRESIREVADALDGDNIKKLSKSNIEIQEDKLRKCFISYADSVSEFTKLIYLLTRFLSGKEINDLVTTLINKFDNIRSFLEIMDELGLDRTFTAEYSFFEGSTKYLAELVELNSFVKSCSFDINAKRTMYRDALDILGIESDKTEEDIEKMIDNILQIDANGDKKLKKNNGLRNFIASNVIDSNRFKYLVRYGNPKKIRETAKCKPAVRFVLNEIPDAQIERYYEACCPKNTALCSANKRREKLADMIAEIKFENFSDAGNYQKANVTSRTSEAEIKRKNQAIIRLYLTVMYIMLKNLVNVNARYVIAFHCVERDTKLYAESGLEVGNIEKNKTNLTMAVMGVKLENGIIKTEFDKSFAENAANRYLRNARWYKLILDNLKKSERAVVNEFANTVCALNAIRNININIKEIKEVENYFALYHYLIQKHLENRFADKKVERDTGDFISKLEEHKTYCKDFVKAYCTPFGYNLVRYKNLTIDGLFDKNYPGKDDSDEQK


Target: T1, EsCas13d, nuclease-dead
Assay: crRNA (strand 1, pre-loaded); Mg2+; 40 mM Tris-HCl pH 7.5, 150 mM NaCl, 6 mM MgCl2, 1 mM DTT, 0.1% Tween-20, 0.2 mg/ml BSA; 25 C; 10 min per concentration, then washed
Conditions: tags: His6-TwinStrep-SUMO cleaved; N-terminal SNAP kept (SNAP-Surface 488); label: 3' end held by stalled T7 RNA polymerase

Row | Binder | Kd
1 | target 1 insC 3' of 22,insU 3' of 20 (mixed) RNA 1: CACCCGUGCAAAAAUGCAGGGGUCUAAAACUGAGCGGAUAACCUCUCUAUGG RNA 2: GGGAAUGGAUCCACAUCUACGAAUUCGUACCCAUUAGAGAGGUUAUCCGCUCACCGAGAUCGGAAGAGCACACGU | 0.0183 ± 0.0027 µM
2 | target 1 insA 3' of 22,insA 3' of 21 (mixed) RNA 1: CACCCGUGCAAAAAUGCAGGGGUCUAAAACUGAGCGGAUAACCUCUCUAUGG RNA 2: GGGAAUGGAUCCACAUCUACGAAUUCGUACACAAUAGAGAGGUUAUCCGCUCACCGAGAUCGGAAGAGCACACGU | 0.0162 ± 0.0009 µM
3 | target 1 insC 3' of 9,insG 3' of 2 (mixed) RNA 1: CACCCGUGCAAAAAUGCAGGGGUCUAAAACUGAGCGGAUAACCUCUCUAUGG RNA 2: GGGAAUGGAUCCACAUCUACGAAUUCGUACCAUAGAGAGGUUACUCCGCUCGACCGAGAUCGGAAGAGCACACGU | 0.0138 ± 0.0007 µM
4 | target 1 insC 3' of 9,insC 3' of 5 (mixed) RNA 1: CACCCGUGCAAAAAUGCAGGGGUCUAAAACUGAGCGGAUAACCUCUCUAUGG RNA 2: GGGAAUGGAUCCACAUCUACGAAUUCGUACCAUAGAGAGGUUACUCCGCCUCACCGAGAUCGGAAGAGCACACGU | 0.0109 ± 0.0007 µM
5 | target 1 C7U,G13U (mixed) RNA 1: CACCCGUGCAAAAAUGCAGGGGUCUAAAACUGAGCGGAUAACCUCUCUAUGG RNA 2: GGGAAUGGAUCCACAUCUACGAAUUCGUACCAUAGAGAUGUUAUUCGCUCACCGAGAUCGGAAGAGCACACGU | 0.039 ± 0.006 µM
6 | target 1 insC 3' of 15,insA 3' of 2 (mixed) RNA 1: CACCCGUGCAAAAAUGCAGGGGUCUAAAACUGAGCGGAUAACCUCUCUAUGG RNA 2: GGGAAUGGAUCCACAUCUACGAAUUCGUACCAUAGAGCAGGUUAUCCGCUCAACCGAGAUCGGAAGAGCACACGU | 0.0156 ± 0.0008 µM
7 | target 1 C7U,A18U (mixed) RNA 1: CACCCGUGCAAAAAUGCAGGGGUCUAAAACUGAGCGGAUAACCUCUCUAUGG RNA 2: GGGAAUGGAUCCACAUCUACGAAUUCGUACCAUUGAGAGGUUAUUCGCUCACCGAGAUCGGAAGAGCACACGU | 0.0269 ± 0.0023 µM
8 | target 1 C7G,A18U (mixed) RNA 1: CACCCGUGCAAAAAUGCAGGGGUCUAAAACUGAGCGGAUAACCUCUCUAUGG RNA 2: GGGAAUGGAUCCACAUCUACGAAUUCGUACCAUUGAGAGGUUAUGCGCUCACCGAGAUCGGAAGAGCACACGU | 0.032 ± 0.006 µM
9 | target 1 insC 3' of 15,insU 3' of 1 (mixed) RNA 1: CACCCGUGCAAAAAUGCAGGGGUCUAAAACUGAGCGGAUAACCUCUCUAUGG RNA 2: GGGAAUGGAUCCACAUCUACGAAUUCGUACCAUAGAGCAGGUUAUCCGCUCAUCCGAGAUCGGAAGAGCACACGU | 0.0191 ± 0.0018 µM
10 | target 1 insC 3' of 8,insA 3' of 2 (mixed) RNA 1: CACCCGUGCAAAAAUGCAGGGGUCUAAAACUGAGCGGAUAACCUCUCUAUGG RNA 2: GGGAAUGGAUCCACAUCUACGAAUUCGUACCAUAGAGAGGUUAUCCCGCUCAACCGAGAUCGGAAGAGCACACGU | 0.0189 ± 0.0014 µM
11 | target 1 A1G,G17U (mixed) RNA 1: CACCCGUGCAAAAAUGCAGGGGUCUAAAACUGAGCGGAUAACCUCUCUAUGG RNA 2: GGGAAUGGAUCCACAUCUACGAAUUCGUACCAUAUAGAGGUUAUCCGCUCGCCGAGAUCGGAAGAGCACACGU | 0.0213 ± 0.0021 µM
12 | target 1 A1G,C6A (mixed) RNA 1: CACCCGUGCAAAAAUGCAGGGGUCUAAAACUGAGCGGAUAACCUCUCUAUGG RNA 2: GGGAAUGGAUCCACAUCUACGAAUUCGUACCAUAGAGAGGUUAUCAGCUCGCCGAGAUCGGAAGAGCACACGU | 0.007 ± 0.00035 µM
13 | target 1 insA 3' of 6,insG 3' of 6 (mixed) RNA 1: CACCCGUGCAAAAAUGCAGGGGUCUAAAACUGAGCGGAUAACCUCUCUAUGG RNA 2: GGGAAUGGAUCCACAUCUACGAAUUCGUACCAUAGAGAGGUUAUCCAGGCUCACCGAGAUCGGAAGAGCACACGU | 0.032 ± 0.005 µM
14 | target 1 A14C,C21U (mixed) RNA 1: CACCCGUGCAAAAAUGCAGGGGUCUAAAACUGAGCGGAUAACCUCUCUAUGG RNA 2: GGGAAUGGAUCCACAUCUACGAAUUCGUACUAUAGAGCGGUUAUCCGCUCACCGAGAUCGGAAGAGCACACGU | 0.0073 ± 0.0006 µM
15 | target 1 U8G,C22A (mixed) RNA 1: CACCCGUGCAAAAAUGCAGGGGUCUAAAACUGAGCGGAUAACCUCUCUAUGG RNA 2: GGGAAUGGAUCCACAUCUACGAAUUCGUAACAUAGAGAGGUUAGCCGCUCACCGAGAUCGGAAGAGCACACGU | 0.0276 ± 0.003 µM
16 | target 1 insC 3' of 20,insC 3' of 13 (mixed) RNA 1: CACCCGUGCAAAAAUGCAGGGGUCUAAAACUGAGCGGAUAACCUCUCUAUGG RNA 2: GGGAAUGGAUCCACAUCUACGAAUUCGUACCACUAGAGAGCGUUAUCCGCUCACCGAGAUCGGAAGAGCACACGU | 0.0072 ± 0.0006 µM
17 | target 1 G5A,C21U (mixed) RNA 1: CACCCGUGCAAAAAUGCAGGGGUCUAAAACUGAGCGGAUAACCUCUCUAUGG RNA 2: GGGAAUGGAUCCACAUCUACGAAUUCGUACUAUAGAGAGGUUAUCCACUCACCGAGAUCGGAAGAGCACACGU | 0.023 ± 0.006 µM
18 | target 1 insC 3' of 8,insG 3' of 1 (mixed) RNA 1: CACCCGUGCAAAAAUGCAGGGGUCUAAAACUGAGCGGAUAACCUCUCUAUGG RNA 2: GGGAAUGGAUCCACAUCUACGAAUUCGUACCAUAGAGAGGUUAUCCCGCUCAGCCGAGAUCGGAAGAGCACACGU | 0.0143 ± 0.001 µM
19 | target 1 insC 3' of 8,insC 3' of 1 (mixed) RNA 1: CACCCGUGCAAAAAUGCAGGGGUCUAAAACUGAGCGGAUAACCUCUCUAUGG RNA 2: GGGAAUGGAUCCACAUCUACGAAUUCGUACCAUAGAGAGGUUAUCCCGCUCACCCGAGAUCGGAAGAGCACACGU | 0.013 ± 0.0009 µM
20 | target 1 G17C,C21A (mixed) RNA 1: CACCCGUGCAAAAAUGCAGGGGUCUAAAACUGAGCGGAUAACCUCUCUAUGG RNA 2: GGGAAUGGAUCCACAUCUACGAAUUCGUACAAUACAGAGGUUAUCCGCUCACCGAGAUCGGAAGAGCACACGU | 0.047 ± 0.012 µM
21 | target 1 insC 3' of 8,insU 3' of 1 (mixed) RNA 1: CACCCGUGCAAAAAUGCAGGGGUCUAAAACUGAGCGGAUAACCUCUCUAUGG RNA 2: GGGAAUGGAUCCACAUCUACGAAUUCGUACCAUAGAGAGGUUAUCCCGCUCAUCCGAGAUCGGAAGAGCACACGU | 0.0263 ± 0.0025 µM
22 | target 1 U10A,C21U (mixed) RNA 1: CACCCGUGCAAAAAUGCAGGGGUCUAAAACUGAGCGGAUAACCUCUCUAUGG RNA 2: GGGAAUGGAUCCACAUCUACGAAUUCGUACUAUAGAGAGGUAAUCCGCUCACCGAGAUCGGAAGAGCACACGU | 0.0081 ± 0.0005 µM
23 | target 1 insC 3' of 15,insC 3' of 1 (mixed) RNA 1: CACCCGUGCAAAAAUGCAGGGGUCUAAAACUGAGCGGAUAACCUCUCUAUGG RNA 2: GGGAAUGGAUCCACAUCUACGAAUUCGUACCAUAGAGCAGGUUAUCCGCUCACCCGAGAUCGGAAGAGCACACGU | 0.0156 ± 0.0013 µM
24 | target 1 C6U,G12U (mixed) RNA 1: CACCCGUGCAAAAAUGCAGGGGUCUAAAACUGAGCGGAUAACCUCUCUAUGG RNA 2: GGGAAUGGAUCCACAUCUACGAAUUCGUACCAUAGAGAGUUUAUCUGCUCACCGAGAUCGGAAGAGCACACGU | 0.0113 ± 0.0008 µM
